Each substance was assayed against ZU5 domain of ankyrin (assay: ITC).
Chain of ZU5 domain of ankyrin (P16157 913-1068): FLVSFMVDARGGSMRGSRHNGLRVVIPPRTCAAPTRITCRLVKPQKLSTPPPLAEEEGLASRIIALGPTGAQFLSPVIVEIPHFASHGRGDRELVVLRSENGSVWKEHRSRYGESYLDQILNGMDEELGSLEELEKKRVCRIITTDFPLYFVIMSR

Row | dH | Substance
1 | 5.98 kcal/mol | wild type βI-spectrin 14-15 di-repeat (domain or fragment)
2 | 4.82 kcal/mol | βI14-15 E1703A (domain or fragment)
3 | 3.73 kcal/mol | βI14-15 E1710A (domain or fragment)

The next lines start with the substance.

Row | Substance | dH
4 | βI14-15 A1867P (domain or fragment) | 0.904 kcal/mol
5 | βI14-15 D1700A (domain or fragment) | 4.42 kcal/mol
6 | βI14-15 D1701A (domain or fragment) | 4.64 kcal/mol
7 | βI14-15 D1781A (domain or fragment) | 5.52 kcal/mol
8 | βI14-15 E1708A (domain or fragment) | 3.27 kcal/mol
9 | βI14-15 E1784A (domain or fragment) | 5.21 kcal/mol
10 | βI14-15 T1788A (domain or fragment) | 2.08 kcal/mol
11 | βI14-15 Y1866A (domain or fragment) | 2.52 kcal/mol
